The target in this assay is human PP2A B56γ1(30–380) (human, UniProt Q13362-2 30-380). The assay can be described thus: ITC; B56γ1 in the cell at 0.03 mmol/L, BubR1 protein or peptide at 0.7 mmol/L injected (20 x 1.5 µL); room temperature; 20 mmol/L Tris-HCl pH 8.0, 200 mmol/L NaCl; one-site model. The settings on record: both partners purified. On the technique in general: In ITC the heat of successive injections is recorded.

B1: human BubR1(647–720)-3D (S670D/S676D/T680D) (domain or fragment)
chain: KTSEDQQTACGTIYSQTLSIKKLDPIIEDDREADHSSGFSGSSASVASTSSIKCLQIPEKLELTNETSENPTQS
notes: also called BubR1-3D; source: E. coli BL21 (DE3), purified (Glutathione Sepharose 4B, TEV cleavage, Hitrap Q HP)
B1: the dissociation constant (Kd) (commonly the equilibrium constant for the complex coming apart) came to 2.27 ± 0.37 µM; the dH was -28.4 ± 0.83 kcal/mol; the stoichiometry N (in general, a count of units in the complex or per binding partner) is 1.02 ± 0.02.

B2: human BubR1(647–720; E678A/T680A/H681A) (domain or fragment)
chain: KTSEDQQTACGTIYSQTLSIKKLSPIIEDSRAAAASSGFSGSSASVASTSSIKCLQIPEKLELTNETSENPTQS
notes: also called BubR1-AAAA; source: E. coli BL21 (DE3), purified the same way as wild type
Turning to B2, binding was put at a Kd of 10.6 ± 1.72 µM, the dH is -9.74 ± 0.64 kcal/mol and the “stoichiometry N” value came to 1.02 ± 0.05.

The record behind these values is publication PMC4930772, “Crystal structure of a PP2A B56-BubR1 complex and its implications for PP2A substrate recruitment and localization” (Protein & Cell, 2016).
